Assay results as given in publication PMC7617797, “The phosphorylated trimeric SOSS1 complex and RNA polymerase II trigger liquid-liquid phase separation at double-strand breaks”.

Columns and labels:
[1] = target: T1, hSSB1;INTS3;c9orf80 (Homo sapiens;Homo sapiens?;Homo sapiens?, UniProt Q9BQ15;Q68E01;Q9NRY2 1-211;1-1043;1-104, ||); assay: EMSA; EMSA: 25 mM Tris-HCl pH 7.5, 1 mM DTT, 5 mM MgCl2, 100 mM NaCl, 20 min at 37 C; 10 nM substrate; protein 22-167 nM (RPA 5-40 nM); 7.5% native PAGE, 0.5x TBE, 4; settings: protein: recombinant;recombinant;recombinant; tags: His6 (2BT);His6-TEV (438B);His6-TEV (438B); copies: 1;1;1; label: 5' Cy3; single strand
T1 sequence (Q9BQ15 whole entry, chain 1 of 3): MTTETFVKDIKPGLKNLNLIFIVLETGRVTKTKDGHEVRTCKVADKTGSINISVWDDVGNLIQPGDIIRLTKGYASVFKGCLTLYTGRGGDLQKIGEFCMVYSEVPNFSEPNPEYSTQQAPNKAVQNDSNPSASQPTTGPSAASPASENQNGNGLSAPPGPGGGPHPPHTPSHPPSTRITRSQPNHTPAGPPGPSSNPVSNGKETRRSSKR
T1 sequence (Q68E01 whole entry, chain 2 of 3): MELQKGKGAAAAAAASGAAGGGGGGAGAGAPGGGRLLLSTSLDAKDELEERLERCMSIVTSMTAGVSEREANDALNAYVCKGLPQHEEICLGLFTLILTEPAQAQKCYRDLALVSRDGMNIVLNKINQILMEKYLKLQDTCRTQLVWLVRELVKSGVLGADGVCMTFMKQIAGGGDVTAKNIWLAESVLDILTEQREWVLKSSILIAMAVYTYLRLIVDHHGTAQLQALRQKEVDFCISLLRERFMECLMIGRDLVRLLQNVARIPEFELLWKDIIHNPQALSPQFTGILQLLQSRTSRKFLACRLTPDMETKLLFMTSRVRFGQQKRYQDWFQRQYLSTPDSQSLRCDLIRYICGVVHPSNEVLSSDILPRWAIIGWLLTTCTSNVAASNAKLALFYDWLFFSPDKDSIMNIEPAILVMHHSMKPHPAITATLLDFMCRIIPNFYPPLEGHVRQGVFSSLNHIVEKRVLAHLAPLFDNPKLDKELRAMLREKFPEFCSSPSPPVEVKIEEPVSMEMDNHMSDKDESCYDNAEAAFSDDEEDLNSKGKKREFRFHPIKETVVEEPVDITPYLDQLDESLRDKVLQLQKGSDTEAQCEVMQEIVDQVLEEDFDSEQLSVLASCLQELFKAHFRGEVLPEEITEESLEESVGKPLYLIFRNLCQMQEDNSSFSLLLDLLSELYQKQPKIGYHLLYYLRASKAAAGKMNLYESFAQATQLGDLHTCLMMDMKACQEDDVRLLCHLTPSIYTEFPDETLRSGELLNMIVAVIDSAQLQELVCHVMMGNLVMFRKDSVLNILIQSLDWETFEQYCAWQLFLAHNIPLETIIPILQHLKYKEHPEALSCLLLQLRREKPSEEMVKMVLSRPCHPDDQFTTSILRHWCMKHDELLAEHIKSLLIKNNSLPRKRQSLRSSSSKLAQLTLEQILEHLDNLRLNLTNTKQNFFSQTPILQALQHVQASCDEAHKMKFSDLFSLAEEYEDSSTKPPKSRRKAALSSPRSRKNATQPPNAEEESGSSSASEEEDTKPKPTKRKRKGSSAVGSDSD
T1 sequence (Q9NRY2 whole entry, chain 3 of 3): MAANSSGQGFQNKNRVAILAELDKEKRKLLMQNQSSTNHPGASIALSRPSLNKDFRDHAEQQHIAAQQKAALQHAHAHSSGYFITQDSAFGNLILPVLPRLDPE

[2] = target: hSSB1 Y115A (Homo sapiens, UniProt Q9BQ15 1-211, Y115A); assay: as above; settings: protein: recombinant
hSSB1 Y115A, sequence (Q9BQ15 whole entry Y115A): as the sequence (Q9BQ15 whole entry, chain 1 of 3) above, with Y115A counted along it

[3] = target: hSSB1 Y102A (Homo sapiens, UniProt Q9BQ15 1-211, Y102A); assay: as above; settings: protein: recombinant
hSSB1 Y102A, sequence (Q9BQ15 whole entry Y102A): as the sequence (Q9BQ15 whole entry, chain 1 of 3) above, with Y102A counted along it

[4] = target: hSSB1 Y102A/Y115A (Homo sapiens, UniProt Q9BQ15 1-211, Y102A;Y115A); assay: as above; settings: protein: recombinant
hSSB1 Y102A/Y115A, sequence (Q9BQ15 whole entry Y102A/Y115A): as the sequence (Q9BQ15 whole entry, chain 1 of 3) above, with Y102A, Y115A counted along it

[5] = target: T1, hSSB1;INTS3;c9orf80; assay: competition EMSA; substrate pre-coated with RPA (10 or 30 nM); EMSA: 25 mM Tris-HCl pH 7.5, 1 mM DTT, 5 mM MgCl2, 100 mM NaCl, 20 min at 37 C; 10 nM substrate; protein 22-167 nM (RPA 5-40 nM); 7.5% native PAGE, 0.5x TBE, 4; settings: protein: recombinant;recombinant;recombinant; tags: His6 (2BT);His6-TEV (438B);His6-TEV (438B); copies: 1;1;1; label: 5' Cy3 on strand 1; 21-nt RNA paired to strand 1 in a 21-nt bubble; 20-bp flanking duplexes
[6] = label: 5' Cy3 on strand 1, 21-nt RNA paired to strand 1 in a 21-nt bubble, 20-bp flanking duplexes

GTGCCTTGCTAGGACATCTTT (ssDNA) [21-mer ssDNA (pRMS630)]
binding result [1]: no binding

B1: 61-mer ssDNA (ssDNA)
DNA: GACGCTGCCGAATTCTACCAGTGCCTTGCTAGGACATCTTTGCCCACCTGCAGGTTCACCC
binding result ([2]; label: 5' Cy3, single strand): binds | binding result ([3]; label: 5' Cy3, single strand): binds | binding result ([4]; label: 5' Cy3, single strand): binds

B2: R-loop (mixed)
DNA 1: B1 DNA
DNA 2: GGGTGAACCTGCAGGTGGGCGGCTGCTCATCGTAGGTTAGTTGGTAGAATTCGGCAGCGTC
RNA: AAAGAUGUCCUAGCAAGGCAC
binding result [2, 6]: binds | binding result [3, 6]: binds | binding result [4, 6]: binds | binding result [5]: binds
